System: TNF expression in HUVEC cell culture

Substance: Gly-Asp-Cys-Pro-Pro-Trp-Cys-Gly-Ala-Arg-Cys-(XXX)-Cys [SEQ ID NO:1 scaffolding protein]
- toxic activity (activity of the toxin): does not present any type of toxic activity

— US20230374072A1 (priority 2020, published 2023)
